In PMC12915131, “Balanced Expression of the Diiron Oxygenase BioE Is Essential for Biotin Homeostasis in Elizabethkingia meningoseptica” (Advanced Science, 2025):
pKd: −log10 of the molar value.

Experiments:
[1] = target: Elizabethkingia meningoseptica BioE (Elizabethkingia meningoseptica); assay: SEC; Superdex 75 (Increase) column, 20 mM Tris-HCl pH 8.0, 300 mM NaCl; oligomeric state judged from retention volume
[2] = target: Chlamydia psittaci BioE (Chlamydia psittaci); assay: SPR; […], single-cycle kinetics, 1:1 Langmuir fit; […]

Sequence of stearoyl-ACP (E. coli acyl carrier protein carrying a C18 acyl group) (P0A6A8 2-78): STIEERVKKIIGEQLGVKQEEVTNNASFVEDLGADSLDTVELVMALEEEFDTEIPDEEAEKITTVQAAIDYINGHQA

Substance | stoichiometry N [1] | pKd [2]
Elizabethkingia meningoseptica BioE (enzyme) | 2 | 
stearoyl-ACP (E. coli acyl carrier protein carrying a C18 acyl group) (from UniProt P0A6A8 2-78) (natural protein) |  | 6.69
